This is an account of results in PMC5986272, “Biosynthetic tailoring of existing ascaroside pheromones alters their biological function in C. elegans” (eLife, 2018).

One data set addresses T1, ACOX-1.1 (Caenorhabditis elegans, UniProt O62140).
T1 construct: pET-16b-acox-1.1a, expressed in E. coli and purified, homodimer
T1 sequence (O62140 1-674): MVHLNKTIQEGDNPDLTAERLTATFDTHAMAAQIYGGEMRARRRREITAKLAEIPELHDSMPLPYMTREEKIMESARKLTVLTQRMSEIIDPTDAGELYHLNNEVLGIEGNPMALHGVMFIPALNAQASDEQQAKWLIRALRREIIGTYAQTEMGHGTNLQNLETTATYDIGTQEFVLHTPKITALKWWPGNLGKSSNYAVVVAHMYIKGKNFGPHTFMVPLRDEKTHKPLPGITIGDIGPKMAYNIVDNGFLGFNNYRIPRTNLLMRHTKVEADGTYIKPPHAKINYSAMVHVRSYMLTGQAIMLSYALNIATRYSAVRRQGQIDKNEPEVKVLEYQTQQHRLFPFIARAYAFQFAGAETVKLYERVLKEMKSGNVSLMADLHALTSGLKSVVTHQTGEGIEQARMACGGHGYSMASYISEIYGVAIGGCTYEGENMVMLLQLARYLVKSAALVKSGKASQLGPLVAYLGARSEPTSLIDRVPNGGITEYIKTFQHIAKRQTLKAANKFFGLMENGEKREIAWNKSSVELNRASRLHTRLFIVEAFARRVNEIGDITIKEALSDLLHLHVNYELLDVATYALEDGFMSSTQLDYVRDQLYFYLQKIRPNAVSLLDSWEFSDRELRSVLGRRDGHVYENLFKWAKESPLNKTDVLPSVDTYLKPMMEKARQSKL
The experiment in a line: LC-MS assay with MAOC-1, DHS-28, DAF-22; peroxidase-coupled H2O2 assay. The format is biochemical. Particulars: LC-MS: 40 μM substrate, 20 μM FAD, 20 μM NAD+, 200 μM CoA, pH 7.5, 30 °C; coupled: 24 µM substrate, ~23 °C.

Substrate in the data set “purified protein”: C[C@H](CCCCCCC(=O)O)O[C@@H]1O[C@@H](C)[C@H](OC(=O)c2c[nH]c3ccccc23)C[C@H]1O
Description: purified protein. The format is biochemical, Caenorhabditis elegans. Particulars: 7.5 mM ATP, 1 mM CoA, 10 mM MgCl2, 1.6 mM Triton X-100, pH 7.4, 22 °C.

`C[C@H](CCCCCCC(=O)SCCNC(=O)CCNC(=O)[C@H](O)C(C)(C)COP(=O)(O)OP(=O)(O)OC[C@H]1O[C@@H](n2cnc3c(N)ncnc32)[C@H](O)[C@@H]1OP(=O)(O)O)O[C@@H]1O[C@@H](C)[C@H](OC(=O)c2c[nH]c3ccccc23)C[C@H]1O` [IC-asc-C9-CoA]: on ACOX-1.1, the “LC-MS assay with MAOC-1, DHS-28, DAF-22; peroxidase-coupled H2O2 assay” value is recorded as “It also showed activity towards IC-asc-C9-CoA, but less than towards IC-asc-C7-CoA”.

B1: ACS-7 (Caenorhabditis elegans) (protein)
chain: MIFHGEQLENHDKPVHEVLLERFKVHQEKDPDNVAFVTAENEDDSLGFQQLGKKVLQISEWFVENGYKKGDVFLLASYNNWRCFAAALGAWRAGLIVSAAASQFTSFEMNYQIEDSQSQVILVDKHTLPVVQEACKNLKFVKQIISISANPPSPVIKFDVLTSRLVRNLKMPLIDPKNDIVFLPYSSGTTGKPKGVMISHLNFSMMLESSLRFFDANAKAIGLPPDFVLPYDLHFLPMYHAMGMFRTLLTSYRGTTQIMFTKFDMELMLKNIEKYSIMVLSLVPAIAVRMLNSPLLQKYDVSSLVSVTVGSAPFPESASKKLKQLLPNVNIVQGYGMTELTFATHLQSPGSPDGSVGRLVPGTSMKVKKEDGTLCGPHEIGELWIKGPQMMKGYWKKEQQTNELLDEHGFMRTGDIVYFDKNGETFICDRIKELIKVNAKQVAPAELESVILEHDDVADVCVFGVDDASSGERPVACVVSKRGRDMETSKAIMKHINQKLARYKHIKEIEFVSEIMRTGTGKLLRRAMKKAFLDAKKAKL
notes: full-length from cDNA library, pET-22b (NdeI/XhoI), His-tagged, E. coli BL21(DE3), Ni-NTA and Superdex 200
A word on the Km: it is the substrate concentration at which the rate is half of its maximum. By kcat is commonly meant the maximal rate divided by the concentration of active sites. For the molecule B1, in the data set “purified protein”, the Michaelis constant (Km) came to 14.5 ± 3.0 µM and the catalytic constant (kcat) is 0.53 ± 0.08 s⁻¹.
